Assay results published in publication PMC3702382 (Biochemistry, 2013).

Biological target: the molecule itself
Experiment: TOXCAT

B1: FtsB transmembrane domain TOXCAT construct, Gln 16 to Met (domain or fragment)
chain: NRASLALTLLLLAILVWLMYSLWFGILIN
In the case of B1, the “CAT activity, % of WT” value is reported as 22 % of WT.

B2: FtsB transmembrane domain TOXCAT construct, Gln 16 to Asn (domain or fragment)
chain: NRASLALTLLLLAILVWLNYSLWFGILIN
B2 was tested, and the “CAT activity, % of WT” value was 67%.
